{"source": "the nanobody polyreactivity screen of Harvey et al. (2022)", "data": [{"assay": "yeast display, Sf9 membrane polyspecificity reagent, FACS + sequencing; frameworks hold sequencing errors", "in_short": "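Galactose-induced (36–48 hours) yeast carrying a synthetic nanobody display library were exposed to 10% biotinylated, detergent-solubilized Sf9 membrane reagent at 4 °C for 1 hour. FACS followed streptavidin microbead enrichment, using low and high (top ~1%) gates for expression (anti-HA) and reagent binding (streptavidin). Colony PCR, MiSeq 2 × 250 sequencing and CDR-length filtering followed. Labels for polyreactivity reflect the gate of origin.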", "values": [{"sequence": "QVQLVESGGGLVQAGGSLRLSCAASGRIFAYYAMGWYRQAPGKERELVAAISSGGSTKYADSVKGRFTISRDNAKNTVYLQMNSLKPEDTAVYYCAAKYGYRKYRGFQNGGDYWGQGTQVNVSS", "polyreactivity (PSR sort gate)": "high polyreactivity"}, {"sequence": "QVQLVESGGGLVQAGGSLRLSCAASGRIFAYYAMGWYRQAPGKERELVAAISSGGTTNYADSVKGRFTISRDNAKITVYLQMNSLIPEDTAVYYCNADGWRRSRQYYYWGQGTQVTVSS", "polyreactivity (PSR sort gate)": "low polyreactivity"}, {"sequence": "QVQLVESGGGLVQAGGSLRLSCAASGRIFAYYAMGWYRQAPGKERELVAAITSSGGSTYYADSVKGRFTISRDNAKNTVYLQMNSLKPEDTAVYFCAKVGARSERFDYRGQGTQVTVSS", "polyreactivity (PSR sort gate)": "high polyreactivity"}, {"sequence": "QVQLVESGGGLVQAGGSLRLSCAASGRIFAYYAMGWYRQAPGKERELVAAITTNGGGTYYADSVKGRFTISRDNETNTVYLQMNSLKAEDTAVYYCAKRSWIEYDYWGQGTQVTVSS", "polyreactivity (PSR sort gate)": "low polyreactivity"}, {"sequence": "QVQLVESGGGLVQAGGSLRLSCAASGRIFAYYAMGWYRQAPGKERELVAGINSGGGSTYYADSVKGRFTISRDNAKNTVYLQMNSLKPEDNAVSYCATYYYRRSNRSSTSYDYWGQGTQVTVSS", "polyreactivity (PSR sort gate)": "high polyreactivity"}, {"sequence": "QVQLVESGGGLVQAGGSLRLSCAASGRIFAYYAMGWYRQAPGKERELVATITRGGNTNYADSVKGRFTISRDNAKNTVYLQMNSLKPEDTAVYYCNRRYSRWGIYDYWGQGTQVTVSS", "polyreactivity (PSR sort gate)": "high polyreactivity"}, {"sequence": "QVQLVESGGGLVQAGGSLRLSCAASGRIFAYYAMGWYRQAPGKEREVVAAISRSGVSTYYADSVKGRFTISRDNAKNTVYLQMNSLKPEDTAVYYCAARWRYGFTSGDYWGQGTQVNVSS", "polyreactivity (PSR sort gate)": "low polyreactivity"}, {"sequence": "QVQLVESGGGLVQAGGSLRLSCAASGRIFAYYAMGWYRQAPGQERELVATITGGGDRTYYADSVKGRFTISRDNAKNTLYLQMNSLKPEDTAVYYCNARVWYYSPYYYWGQGTQVTVSS", "polyreactivity (PSR sort gate)": "low polyreactivity"}, {"sequence": "QVQLVESGGGLVQAGGSLRLSCAASGRIFAYYTMGWYRQAPGKERELVAAISGSSGRTYYADSVKGRFTISRDNAKNTVYLQMNSLKPEDTAVYYCAARGFSFWRYYYWGQGTQVTVSS", "polyreactivity (PSR sort gate)": "high polyreactivity"}, {"sequence": "QVQLVESGGGLVQAGGSLRLSCAASGRIFDDNAKGCYRQPPGKERELLASLTVSTGSTYYADSVKGRFTISRDTAKNTVYLQMNSLKPEDTAVYYCAAPYITPYGTYVFSSDYWGQGTQVTVSS", "polyreactivity (PSR sort gate)": "low polyreactivity"}, {"sequence": "QVQLVESGGGLVQAGGSLRLSCAASGRIFDDYAMGWYRQAPGKEREFVAAISRSGASTYYADSVKGRFTISRDNAKNTVYLQMNSLKPEDTAVYYCAARAGANYRMDYWGQGTQVTVSS", "polyreactivity (PSR sort gate)": "high polyreactivity"}, {"sequence": "QVQLVESGGGLVQAGGSLRLSCAASGRIFDDYGMGWYRQAQGKESELVAGISFIAGSTYYADSVKGRFTISRDNAKNTVYLQMNSLKPEDTAVYYCAVELWYEYYYWGQGTQVTVSS", "polyreactivity (PSR sort gate)": "high polyreactivity"}, {"sequence": "QVQLVESGGGLVQAGGSLRLSCAASGRIFDGNAMGWDRPAPGKERELVADISVTGGSTYYADSVKGRFTISRDNAKNTVYLQMNSLKPEDTAVYYCNAYPFSRSVQLRDYWGQGTQVTVSS", "polyreactivity (PSR sort gate)": "low polyreactivity"}, {"sequence": "QVQLVESGGGLVQAGGSLRLSCAASGRIFDGNAMGWYRQAPGKERELVATITRGGRTNYADSVKGRFTISRDNAKNTVYLQMNSLKPEDTAVYYCAAEYTYYTYNLNYWGQGTQVTVSS", "polyreactivity (PSR sort gate)": "low polyreactivity"}, {"sequence": "QVQLVESGGGLVQAGGSLRLSCAASGRIFDGNTMGWYRQAPGKERELVAAITYSGGRTSYADSVKGRFTISRDNAKNTVYLQMNSLKPEDTAVYYCNARVVTGSWYEGYYWGQGTQVTVSS", "polyreactivity (PSR sort gate)": "low polyreactivity"}, {"sequence": "QVQLVESGGGLVQAGGSLRLSCAASGRIFDGYAMGWYRQAPGTERELVAAITDSGGSTYYADSVKGRFTISRDNAKNTVYLQMNSLKPEDTAVYYCAAEEIDYTDVTSGYEYWGQGTQVTVSS", "polyreactivity (PSR sort gate)": "high polyreactivity"}, {"sequence": "QVQLVESGGGLVQAGGSLRLSCAASGRIFDHYAMGWYRQAPGKERELVAAITRSGGITYYADSVKGRFTISRDNAKNTVYLQMNSLKPEDTAVYYCAALSYRYTDKFDYWGQGTQVTVSS", "polyreactivity (PSR sort gate)": "low polyreactivity"}, {"sequence": "QVQLVESGGGLVQAGGSLRLSCAASGRIFDINAMGWYRQAPGKEWELVAAISRGGSTYYADSVKGRFTISLDNAKNTVYLNMNSLKPEDTAVYYCNIYRYRGSTVFDGYDYWGHGTQVTVSS", "polyreactivity (PSR sort gate)": "high polyreactivity"}, {"sequence": "QVQLVESGGGLVQAGGSLRLSCAASGRIFDIYAMGWYRQAPGKERELVAAITTRGGSTYYADSVKGRFTISRDNAKNNVYLQMNSLKPEDTAVYYCAAAYSEDYRVIFYYWGQGTQVTVSS", "polyreactivity (PSR sort gate)": "low polyreactivity"}, {"sequence": "QVQLVESGGGLVQAGGSLRLSCAASGRIFDIYAMGWYRQAPGKERELVAGITSVGSTNYADSVKGRFTISRDNAKNTVYLQMNSLKPEDTAVYYCAADTSVHSEVDYWGQGTQVTVSS", "polyreactivity (PSR sort gate)": "low polyreactivity"}, {"sequence": "QVQLVESGGGLVQAGGSLRLSCAASGRIFDIYAMGWYRQAPGKERELVAGITSVGSTNYADSVKGRFTISRDNEKNTVYLQMNSLKPEDTAVYYCAAKAYFSTSPYHREHDSWGQGTQVTVSS", "polyreactivity (PSR sort gate)": "low polyreactivity"}, {"sequence": "QVQLVESGGGLVQAGGSLRLSCAASGRIFDIYGMGWYRQAPGKERELLAAITWRGGSTYYADSVKGRFTISRDNAKNTVYLQMKSLNPEDTAVYYCNARKRGARFILGYDYWGQGTQVTVSS", "polyreactivity (PSR sort gate)": "low polyreactivity"}, {"sequence": "QVQLVESGGGLVQAGGSLRLSCAASGRIFDIYTMGWYRQAPGKERELVASITKRGGSTYYADSVKGRFTISRDNAKNTVYLQMKSLKPEDTAVYFCNVAGKQKPYYVTTRLDYWGQGTQVTVSS", "polyreactivity (PSR sort gate)": "high polyreactivity"}, {"sequence": "QVQLVESGGGLVQAGGSLRLSCAASGRIFDLNAMGWYRQAPGKERELVAVISWSGGIKYYADSVKGRFTISRDNAKNTVYLQMNSLKPEDTAVYYCNADTVFDPYYEFDYWGLGTQVTVSS", "polyreactivity (PSR sort gate)": "low polyreactivity"}, {"sequence": "QVQLVESGGGLVQAGGSLRLSCAASGRIFDLYAMGWYRQAPGKERELVAAITWRGGSTYYADSVKGRFTISRDNAKNTVYLQMNSLKPEDTAVYYCAARSYYISPWRFDYWGQGTQVTVSS", "polyreactivity (PSR sort gate)": "high polyreactivity"}, {"sequence": "QVQLVESGGGLVQAGGSLRLSCAASGRIFDPYAMGWYRQAPGKERELVASNSWSGGRTYYADSVKGRFTISRDNAKNTVYLQMNSLKPEDTAVYYCAKVRAYTRLGLTVSMDYWGQGTQVTVSS", "polyreactivity (PSR sort gate)": "high polyreactivity"}, {"sequence": "QVQLVESGGGLVQAGGSLRLSCAASGRIFDQNAMGWYRQAPGKERELVAAISSSGGRTYYADSVKGRFTISRDNAKNTVYLQMNSLKPEDTAVYYCAARYRFQRGGYYYWGQGTQVTVSS", "polyreactivity (PSR sort gate)": "high polyreactivity"}, {"sequence": "QVQLVESGGGLVQAGGSLRLSCAASGRIFDRNAMGWYRPSPGTERELLAAIDDSGGDTSYADSVKGRFTISRDNAKNTVYLQMNSLKPEDTAVYYCNAGYADFVTYPRYYYWGQGTQVTVSS", "polyreactivity (PSR sort gate)": "low polyreactivity"}, {"sequence": "QVQLVESGGGLVQAGGSLRLSCAASGRIFDRNAMGWYRQAPGKERELVAAIDDSGGDTSYADSVKGRFTISRDTAKNTVYLQMNSLKPEDTAVYYCAAKRQYYQTGSQRSYPYDYWGQGTQVTVSS", "polyreactivity (PSR sort gate)": "low polyreactivity"}, {"sequence": "QVQLVESGGGLVQAGGSLRLSCAASGRIFDRNAMGWYRQAPGKERELVAAIRRGGSTNYADSVKGRFTISRDNAKNTVYLQMNSLKPEDTAVYYCNTVYSEYYIAYDYWGQGTQVTVSS", "polyreactivity (PSR sort gate)": "high polyreactivity"}, {"sequence": "QVQLVESGGGLVQAGGSLRLSCAASGRIFDRNAMGWYRQAPGKERELVARIDPGDDTNYADSVKGRFTISRDNAKHTVYLQMHSLKPEDTAVYYCATDPDYVLFRTAYYEYDYWGQGTQVTVSS", "polyreactivity (PSR sort gate)": "low polyreactivity"}, {"sequence": "QVQLVESGGGLVQAGGSLRLSCAASGRIFDRYAMGWYRPAPGKERELVAASTGSGGRTYYADSVKGRFTISRDNAKNTVYLQMNSLKPEDTAVYYCARAFGQRRYYYWGQGTQVTVSS", "polyreactivity (PSR sort gate)": "high polyreactivity"}, {"sequence": "QVQLVESGGGLVQAGGSLRLSCAASGRIFDRYVMGWYRQAPGKERELVAAISSGGSTYYADSVKGRFTISRDNAKNTVYLQMNSLKPEDTAVYYCAADRRSKYDYWGQGTQVTVSS", "polyreactivity (PSR sort gate)": "low polyreactivity"}, {"sequence": "QVQLVESGGGLVQAGGSLRLSCAASGRIFDSYAMGWYRQAPGKERELVAAISFGGDTYYADSVKGRFTISRDNAKNTVYLQMNSLKPEDTAVYYCAKDNPAALFDSWGQGTQVTVSS", "polyreactivity (PSR sort gate)": "low polyreactivity"}, {"sequence": "QVQLVESGGGLVQAGGSLRLSCAASGRIFDTYVMRWYRQAPGKERELVAAISGSGGSTYYADSVKGRFTISRDTAKNTVYLQMNSLKPEDTAVYYCAAVVLGRLLGFRGDYNYWGQGPQVTVSS", "polyreactivity (PSR sort gate)": "high polyreactivity"}, {"sequence": "QVQLVESGGGLVQAGGSLRLSCAASGRIFDVYAMGWYRQAPGKERELVAAITWSGTSTYYADSVKGRFTISRDNAKNTVYLQMNSLKPEDTAVYYCNALSYGRYLNYRGGMDYWGQGTQVTVSS", "polyreactivity (PSR sort gate)": "high polyreactivity"}, {"sequence": "QVQLVESGGGLVQAGGSLRLSCAASGRIFDVYAMGWYRQAPGKERELVATISSSGGATYYADSVKGRFTISRDNAKNTVYLQMNSLKPEDTAVYYCATTYRPTFRRHYNYWGQGTQVTVSS", "polyreactivity (PSR sort gate)": "low polyreactivity"}, {"sequence": "QVQLVESGGGLVQAGGSLRLSCAASGRIFDVYAMGWYRQSPGKERELVAAISWSGSSTYYADSVKGRFTISRDTAKNTVYFQMNSLKPEDTAVYYCAADYPKTYTSKFNYWGQGTQVTVSS", "polyreactivity (PSR sort gate)": "high polyreactivity"}, {"sequence": "QVQLVESGGGLVQAGGSLRLSCAASGRIFDWYAMGWYRQAPGKERELVATISWSGGSTYYADSVKGRFTISRDNAKNTVYLQMNSLKPEDTAVYYCAADDYWRLYTWKFDYWGQGTQVTVSS", "polyreactivity (PSR sort gate)": "high polyreactivity"}, {"sequence": "QVQLVESGGGLVQAGGSLRLSCAASGRIFDYYAMGWYRQAPGKERELVAAINSGGSTYYADSVKGRFTISRDNAKNTVYLQMNSLKPEDTAVYYCAAKSFAPIVDYWGQGTQVTVSS", "polyreactivity (PSR sort gate)": "high polyreactivity"}, {"sequence": "QVQLVESGGGLVQAGGSLRLSCAASGRIFDYYAMGWYRQAPGKERELVAAITRGGSTYYADSVKGRFTISRDNAKNTVYLQLNSLNPVDTEVYYCAASIGIRFIKYDYWGQGAQVTVSS", "polyreactivity (PSR sort gate)": "high polyreactivity"}, {"sequence": "QVQLVESGGGLVQAGGSLRLSCAASGRIFDYYAMGWYRQAPGKERELVAAITSSGGSTYYADSVKGRFTISRDNAKNTVYLQMNSLKPEDTAVYYCAAGRKVQSRRYGYWGQGTQVTVSS", "polyreactivity (PSR sort gate)": "high polyreactivity"}, {"sequence": "QVQLVESGGGLVQAGGSLRLSCAASGRIFDYYAMGWYRQAPGKERELVAVISGSGGTYYADSVKGRFTISRDNAKNTVYLQMNSLKPEDTAVYYCNAAVTSYPGYEYWGQGTQVTVSS", "polyreactivity (PSR sort gate)": "low polyreactivity"}]}]}
